Reference: PMC3296934 (Frontiers in Molecular Neuroscience, 2012)

Molecular target: calmodulin (bovine, UniProt P62157 1-149)
Experiment: SPR

Row | Binder | Kd [µM]
1 | GST-RK fragment F125-K175 (domain or fragment) FLDAETVARARAGAGDGLFQPLLRAVLAHLGQAPFQEFLDSLYFLRFLQWK | 17
2 | GST-RK fragment L102-G183 (domain or fragment) LRPQKAQALRAAYLEPQAQLFCSFLDAETVARARAGAGDGLFQPLLRAVLAHLGQAPFQEFLDSLYFLRFLQWKWLEAQPMG | 23

Now from value to binder:

Row | Kd [µM] | Binder
3 | 63 | GST fusion of the RK amino terminal region (N-RK: M1-G183) (domain or fragment) MDFGSLETVVANSAFIAARGSFDASSGPASRDRKYLARLKLPPLSKCEALRESLDLGFEGMCLEQPIGKRLFQQFLRTHEQHGPALQLWKDIEDYDTADDALRPQKAQALRAAYLEPQAQLFCSFLDAETVARARAGAGDGLFQPLLRAVLAHLGQAPFQEFLDSLYFLRFLQWKWLEAQPMG
4 | 54 | GST-RK fragment M1-L102 (domain or fragment) MDFGSLETVVANSAFIAARGSFDASSGPASRDRKYLARLKLPPLSKCEALRESLDLGFEGMCLEQPIGKRLFQQFLRTHEQHGPALQLWKDIEDYDTADDAL
